The results in this text go back to patent US20260266848A1, “COMPOSITIONS AND METHODS FOR DIAGNOSING AND TREATING DYSTONIA” (Duke University, priority 2023, published 2026).

First the molecules themselves.
B1: Scarb2 (protein, UniProt Q14108 1-478, looked up)
Lysosome membrane protein 2: MGRCCFYTAGTLSLLLLVTSVTLLVARVFQKAVDQSIEKKIVLRNGTEAFDSWEKPPLPVYTQFYFFNVTNPEEILRGETPRVEEVGPYTYRELRNKANIQFGDNGTTISAVSNKAYVFERDQSVGDPKIDLIRTLNIPVLTVIEWSQVHFLREIIEAMLKAYQQKLFVTHTVDELLWGYKDEILSLIHVFRPDISPYFGLFYEKNGTNDGDYVFLTGEDSYLNFTKIVEWNGKTSLDWWITDKCNMINGTDGDSFHPLITKDEVLYVFPSDFCRSVYITFSDYESVQGLPAFRYKVPAEILANTSDNAGFCIPEGNCLGSGVLNVSICKNGAPIIMSFPHFYQADERFVSAIEGMHPNQEDHETFVDINPLTGIILKAAKRFQINIYVKKLDDFVETGDIRTMVFPVMYLNESVHIDKETASRLKSMINTTLIITNIPYIIMALGVFFGLVFTWLACKGQGSMDEGTADERAPLIRT
B2: Exoc4 (protein, UniProt O35382 2-975, looked up)
Exocyst complex component 4: AAEAAGGKYRSTVSKSKDPSGLLISVIRTLSTSDDVEDRENEKGRLEEAYEKCDRDLDELIVQHYTELTTAIRTYQSITERITNSRNKIKQVKENLLSCKMLLHCKRDELRKLWIEGIEHKHVLNLLDEIENIKQVPQKLEQCMASKHYLSATDMLVSAVESLEGPLLQVEGLSDLRLELHSKKMNLHLVLIEELHRHLYIKSTSRVVQRNKEKGKMSSHGKDPSPGPLIDVSNIPTPRKFLDASQYSAAGGSSVREMNLQDVKEDLECDPEENSTLFMGILIQGLARLKKIPETVKAIKERLEQELKQIVKRSTTQVADSAYQRGESLTVDNQPRLLLELLELLFDKFNAVATAHSVVLGYLQDSVGTQLTQQEEIKLYDMADVWVKIQDVLQMLLTEYLDMKNTRTASEPSAQLSYASTGREFAAFFAKKKPQRPKNSLFKFESSSHAISMSAYLREQRRELYSRSGELQGGPDDNLIEGGGTKFVCKPGARNITVIFHPLLRFIQEIEHALGLGPAKQCPLREFLTVYIKSIFLNQVLAEINKEIEGVTKTSDPLKILANADTMKVLGVQRPLLQSTIIVEKTVQDLMNLMHDLSAYSDQFLNMVCVKLQEYKDTCSTAYRGIVQSEEKLVISASWAKDDDISRLLKSLPNWTNMAQPKQLRPKREEEEDFIRAAFGKESEVLIGNLGDKLIPPQDILRDVSDLKALANMHESLEWLAGRTKSAFSNLSTSQMLSPAQESHVNMDLPPVSEQIMQTLSELAKTFQDMADRCLLVLHLEVRVHCFHYLIPLAKEGNYAIVANVESMDYDPLVVKLNKDISAMEEAMSASLQQHKFQYIFEGLGHLISCILINGAQYFRRISESGIKKMCRNIFVLQQNLTNITMSREADLDFARQYYEMLYNTADELLNLVVDQGVKYTELEYIHALTLLHRSQTGVGDQTTQNTRLQRLKEIICEQAAIKQATKDKKITTV
B3: Slc44a1 (protein, UniProt Q6X893 2-653, looked up)
Choline transporter-like …: GCCSSASAAQSSKREWKPLEDRSCTDIPWLLLFVLFCIGMGFICGFSVATGAAARLVSGYDSYGNICGQRNAKLEAIPNSGLDHTHRKYVFFLDPCNLDLINRKIKSIALCVAACPRQELKTLSDVQKFAEINGSALCSYNIKPSEYTLTSKSSGFCPKLPVPASAPIPFFHRCAPVNISCYAKFAEALITFVSDNSVLHRLISGVMTSKEIILGLCLLSLVLSMILMVIIRYISRVLVWILTVLVILGSLGGTGVLWWLYAKQRRSPKEAVIPEQLQIAEDNLRALLIYAISATVFTVILFLIMLVMRKRVALTIALFHVAGKVFIHLPLLVFQPFWTFFALVLFWAYWIMTLLFLGTTGSAVQNEQGFVEYKISGPLQYMWWYHVVGLIWISEFILACQQMTVAGAVVTYYFTRDKRNLPFTPILASVNRLIRYHLGTVAKGSFIITLVKIPRMVLMYIHSQLKGKENACARCMLKSCICCLWCLEKCLSYLNQNAYTATAINSTNFCTSAKDAFVILVENALRVAAINTVGDFMLFLGKVLIVCSTGLAGIMLLNYQQDYTVWVLPLIIVCLFAFLVAHCFLSIYEMVVDVLFLCFAIDTKYNDGSPGREFYMDKVLMEFVENSRKAMKEAGKGGAADARELKPMLRKR
B4: Apom (protein, UniProt Q9Z1R3 1-190, looked up)
Apolipoprotein M: MFHQVWAALLSLYGLLFNSMNQCPEHSQLTALGMDDTETPEPHLGLWYFIAGAASTTEELATFDPVDNIVFNMAAGSAPRQLQLRATIRTKSGVCVPRKWTYRLTEGKGNMELRTEGRPDMKTDLFSSSCPGGIMLKETGQGYQRFLLYNRSPHPPEKCVEEFQSLTSCLDFKAFLVTPRNQEACPLSSK
B5: Slc25a5 (protein, UniProt P51881 1-298, looked up)
ADP/ATP translocase 2: MTDAAVSFAKDFLAGGVAAAISKTAVAPIERVKLLLQVQHASKQITADKQYKGIIDCVVRIPKEQGVLSFWRGNLANVIRYFPTQALNFAFKDKYKQIFLGGVDKRTQFWRYFAGNLASGGAAGATSLCFVYPLDFARTRLAADVGKAGAEREFKGLGDCLVKIYKSDGIKGLYQGFNVSVQGIIIYRAAYFGIYDTAKGMLPDPKNTHIFISWMIAQSVTAVAGLTSYPFDTVRRRMMMQSGRKGTDIMYTGTLDCWRKIARDEGSKAFFKGAWSNVLRGMGGAFVLVLYDEIKKYT
B6: Wbp2 (protein, UniProt P97765 1-261, looked up)
WW domain-binding protein 2: MALNKNHSEGGGVIVNNTESILMSYDHVELTFNDMKNVPEAFKGTKKGTVYLTPYRVIFLSKGKDAMQSFMMPFYLMKDCEIKQPVFGANFIKGIVKAEAGGGWEGSASYKLTFTAGGAIEFGQRMLQVASQASRGEVPNGAYGYPYMPSGAYVFPPPVANGMYPCPPGYPYPPPPPEFYPGPPMMDGAMGYVQPPPPPYPGPMEPPVSGPSAPATPAAEAKAAEAAASAYYNPGNPHNVYMPTSQPPPPPYYPPEDKKTQ
B7: Ilf3 (protein, UniProt Q9Z1X4 1-898, looked up)
Interleukin enhancer-binding …: MRPMRIFVNDDRHVMAKHSSVYPTQEELEAVQNMVSHTERALKAVSDWIDEQEKGNSELSEAENMDTPPDDESKEGAGEQKAEHMTRTLRGVMRVGLVAKGLLLKGDLDLELVLLCKEKPTTALLDKVADNLAIQLTTVTEDKYEILQSVDDAAIVIKNTKEPPLSLTIHLTSPVVREEMEKVLAGETLSVNDPPDVLDRQKCLAALASLRHAKWFQARANGLKSCVIVIRVLRDLCTRVPTWGPLRGWPLELLCEKSIGTANRPMGAGEALRRVLECLASGIVMPDGSGIYDPCEKEATDAIGHLDRQQREDITQSAQHALRLAAFGQLHKVLGMDPLPSKMPKKPKNENPVDYTVQIPPSTTYAITPMKRPMEEDGEEKSPSKKKKKIQKKEEKADPPQAMNALMRLNQLKPGLQYKLISQTGPVHAPIFTMSVEVDGSNFEASGPSKKTAKLHVAVKVLQDMGLPTGAEGRDSSKGEDSAEESDGKPAIVAPPPVVEAVSNPSSVFPSDATTEQGPILTKHGKNPVMELNEKRRGLKYELISETGGSHDKRFVMEVEVDGQKFQGAGSNKKVAKAYAALAALEKLFPDTPLALEANKKKRTPVPVRGGPKFAAKPHNPGFGMGGPMHNEVPPPPNIRGRGRGGNIRGRGRGRGFGGANHGGGYMNAGAGYGSYGYSSNSATAGYSQFYSNGGHSGNAGGGGSGGGGGSSSYSSYYQGDSYNSPVPPKHAGKKPLHGGQQKASYSSGYQSHQGQQQPYNQSQYSSYGTPQGKQKGYGHGQGSYSSYSNSYNSPGGGGGSDYSYDSKFNYSGSGGRSGGNSYGSSGSSSYNTGSHGGYGTGSGGSSSYQGKQGGYSSQSNYSSPGSSQSYSGPASSYQSSQGGYSRNTEHSMNYQYR

The first experiment relates to DYT-TOR1A MEF EVs. Briefly: Quantitative LC-MS/MS proteomics of EVs from drug-treated DYT-TOR1A MEF cultures (ritonavir, salubrinal). In kind it is cell-based, mouse. The arrangement: key to RTV Corrective Direction / RTV Corrective Direction, Grwd1 / RTV Corrective Direction, Srrm2 / RTV Corrective Direction, Rbm17 / RTV Corrective Direction, Dcaf8 / RTV Corrective Direction, Edil3 / RTV Corrective Direction, Timp3 / RTV Corrective Direction, Heatr3 / RTV Corrective Direction, Brd4 / RTV Corrective Direction, P3h4 / RTV Corrective Direction, Pacsin3 / RTV Corrective Direction, Naa50 / RTV Corrective Direction, Lpar6 / RTV Corrective Direction, Ndrg1 / RTV Corrective Direction, Kntc1 / RTV Corrective Direction, Cdk11b / RTV Corrective Direction, Sumo1 / RTV Corrective Direction, Lsm4 / RTV Corrective Direction, Hmga2 / RTV Corrective Direction, Cstf1 / RTV Corrective Direction, Tes / RTV Corrective Direction, Sbno1 / RTV Corrective Direction, Unc119b / RTV Corrective Direction, Cfdp1 / RTV Corrective Direction, Sec61b: YES = protein abundance effect opposite to DYT/WT. To be noted: EV protein abundance, DYT + RTV (ritonavir) vs DYT, direction compared with DYT/WT.
Take B1: the “RTV Corrective Direction” value is listed as “YES”.

On to B2, for which the “RTV Corrective Direction” value is reported as “YES”.

In the case of B3, the “RTV Corrective Direction” value is on record as “YES”.

Still in this experiment, the particulars now being: EV protein abundance, ritonavir (RTV)-treated DYT vs DYT.
With B1, the “DYT + RTV/DYT Cohen's d” value came to 0.24.

Take B2: the “DYT + RTV/DYT Cohen's d” value amounted to 7.70.

With B3, the “DYT + RTV/DYT Cohen's d” value is 0.84.

For the molecule B4, the “DYT + RTV/DYT Cohen's d” value came out at 0.40.

With B5, the “DYT + RTV/DYT Cohen's d” value is on record as −0.78.

Take B6: the “DYT + RTV/DYT Cohen's d” value is reported as −0.89.

In the case of B7, the “DYT + RTV/DYT Cohen's d” value is −1.23.

The next experiment has as its system WT MEF EVs. Briefly: Quantitative LC-MS/MS proteomics of EVs from ISRIB-treated WT MEF cultures. In kind it is cell-based, mouse. More on the design: key to ISRIB and DYT Parallel Direction / ISRIB and DYT Parallel Direction, Ctdsp1 / ISRIB and DYT Parallel Direction, Pcdh19 / ISRIB and DYT Parallel Direction, Tspan7 / ISRIB and DYT Parallel Direction, Myo1e / ISRIB and DYT Parallel Direction, Plpp3 / ISRIB and DYT Parallel Direction, Sh3bp4 / ISRIB and DYT Parallel Direction, Dnajc7 / ISRIB and DYT Parallel Direction, Drg1 / ISRIB and DYT Parallel Direction, Maea: YES = protein abundance effect similar to DYT/WT. Conditions: EV protein abundance, ISRIB-treated WT vs WT.
On to B1, for which the “WT + ISRIB/WT Cohen's d” value was 0.09.

In the case of B2, the “WT + ISRIB/WT Cohen's d” value is on record as −1.51.

For B3, the “WT + ISRIB/WT Cohen's d” value was found to be 0.80.

As to B4, the “WT + ISRIB/WT Cohen's d” value was 2.53.

Regarding B5, the “WT + ISRIB/WT Cohen's d” value is reported as −0.54.

Regarding B6, the “WT + ISRIB/WT Cohen's d” value is given as −1.50.

As to B7, the “WT + ISRIB/WT Cohen's d” value is −4.89.

Still in this experiment, the particulars now being: EV protein abundance, WT + ISRIB vs WT, direction compared with DYT/WT.
For B2, the “ISRIB and DYT Parallel Direction” value was “YES”.

With B4, the “ISRIB and DYT Parallel Direction” value is recorded as “YES”.

B5: the “ISRIB and DYT Parallel Direction” value is given as “YES”.

With B6, the “ISRIB and DYT Parallel Direction” value is “YES”.

As for B7, the “ISRIB and DYT Parallel Direction” value was “YES”.
